Laboratory results taken from article PMC12513983, “Backbone and sidechain ^1H, ^15N and ^13C resonance assignments of a multidrug efflux membrane protein using solution and solid-state NMR” (Biomolecular Nmr Assignments, 2025).

Biological target: the molecule itself
Experiment: solid-state NMR (magic-angle spinning, 13C-detected resonance assignment); S64V-EmrE in POPC proteoliposomes, 25:1 lipid/EmrE monomer, pH 5.8; 2D NCA shows separate peaks for chain A and chain B

B1: S64V-EmrE (natural protein, E. coli, UniProt P23895 1-110, looked up)
chain: MNPYIYLGGAILAEVIGTTLMKFSEGFTRLWPSVGTIICYCASFWLLAQTLAYIPTGIAYAIWVGVGIVLISLLSWGFFGQRLDLPAIIGMMLICAGVLIINLLSRSTPH
notes: also called EmrE mutant S64V; EmrE S64V
  binding result: binds
